This is an account of results in US11827911B2, “Chimeric bacteriophage lysin with activity against Staphylococci bacteria” (priority 2008, dated 2023).

In assay [1] the test system is S. aureus. The assay can be described thus: Lytic assays of chimeric lysins against S. aureus. Type of assay: cell-based, Staphylococcus aureus. Particulars: for lytic/killing activity against S. aureus: qualitative.
The subject of assay [2] is MRSA strain MW2. The assay can be described thus: Systemic MRSA infection model, survival. It is filed as in vivo, FVB/NJ mice. The method, then:
In order to assess whether ClyS treatment could prevent death resulting from systemic MRSA infections, 4 week old FVB/NJ mice were intraperitoneally injected with ˜5×10^5 CFU of the community-acquired MRSA strain MW2 in 5% mucin. Preliminary experiments determined that 5×10^5 CFU was 10× the LD100 dose for a twenty-four hour period. Furthermore, within 3 hours of IP injection the MRSA infection was systemic. i.e., MRSA were recovered in high numbers from heart, liver, spleen, and kidney (data not shown). Treatment occurred three hours post-infection, with either 20 mM phosphate buffer or 1 mg of ClyS in 20 mM phosphate buffer injected IP (intraperitoneally). Mice were then monitored for survival over ten days. The results from three independent experiments were combined (ClyS treatment, n=16; buffer treatment, n=14) and the mice survival data plotted with a Kaplan Meier Survival curve (FIG. 12), Within twenty-four hours all of the control mice died of bacterial sepsis, while only 2/16 of ClyS treated mice died at forty-eight hours, and the remaining mice (14/16, 88%) survived over the course of the experiments (FIG. 12).
To determine if this effect could be seen in our systemic MRSA infection model, FVB/NJ mice were intraperitoneally injected with ˜5×10^5 CFUs of the MRSA strain MW2 as above. Three hours post infection mice were treated in parallel, with a lower IP dose of 130 μg/mouse of ClyS combined with different concentrations of oxacillin (10-100 μg/mouse) or buffer alone controls. Preliminary experiments determined that an ED30 dose of ClyS (130 μg/mouse) had minimal efficacy to evaluate the effect of combinatorial treatment with oxacillin (data not shown). Mice were monitored for survival for 10 days and the results of 5 independent experiments were combined and plotted in a Kaplan Meier Survival curve (FIG. 14).

Assay [3] deals with S. aureus 8325-4 cells. Kind of assay: Transmission electron microscopy of the lytic effect. As to conditions: 50 U of ClyS for 1-3 min. Type of assay: cell-based, Staphylococcus aureus. As for the experimental part: However, unlike other lysins, the sites of degradation on the cell was not restricted to the septal or polar positions but was randomly distributed.
S. aureus strain 8325-4 was grown to log-phase, centrifuged and resuspended in PBS to an absorbance at 600 nm of 1.0. The bacterial suspension was incubated with 50 U of ClyS at room temperature. […] The suspension was pelleted by centrifugation and overlaid with 2.5% glutaraldehyde in 0.1 M cacodylate buffer (pH 7.4). The samples were then postfixed in 1% osmium tetroxide, block stained with uranyl acetate and processed according to standard procedures by The Rockefeller University Electron Microscopy Service.

Assay [4] deals with S. sciuri. Kind of assay: Muralytic activity on bacterial strains, Set II. Particulars: 50 U of ClyS, 15 minutes. Type of assay: cell-based. The method, then:
(§1) Muralytic activity of ClyS was tested on a number of bacterial strains representing a variety of species which were divided into sets (Table 1 and FIG. 10). Set I consisted of S. aureus strains including methicillin-sensitive S. aureus (MSSA) and MRSA. ClyS was active against MSSA and MRSA although differences were observed between S. aureus strains. Set II consisted of different species of staphylococci including S. epidermidis, S. simulans and S. sciuri. […] Set III consisted of a mix of Gram-positive and Gram-negative bacteria including representatives of group A, B, C and E streptococci, oral streptococcal species including S. gordonli, and S. salivarius, as well as S. uberis, Bacillus cereus, Pseudomonas aeruginosa and E. coli.
(§2) The viability assay of ClyS was tested as previously described (Nelson et al, 2001). Briefly, log phase cultures of S. aureus strain 8325-4 were resuspended in PB to OD600 of 0.8-1.0. 50 U of ClyS or the corresponding volume of PB was added to bacterial cells and aliquots were removed, serially diluted, and plated at 1, 5, 10, 30, and 60 minutes to assess the viability of the treated and control cells. All experiments were performed in triplicate. The activity of ClyS on various bacterial strains was tested as described previously (Schuch et al, 2002). Briefly, log phase bacterial cells were treated with 50 U of ClyS at 37° C. for 15 minutes. The samples were serially diluted and plated. Control experiments with the addition of phosphate buffer (pH 7.0) were performed under the same conditions.

Assay [5] relates to S. epidermidis including the biofilm-forming strain RP62A. Kind of assay: Muralytic activity on bacterial strains, Set II. Type of assay: cell-based. As to conditions: 50 U of ClyS, 15 minutes. As for the experimental part:
as §1, §2

Assay [6] concerns S. simulans. The assay can be described thus: Muralytic activity on bacterial strains, Set II. Type of assay: cell-based. Particulars: 50 U of ClyS, 15 minutes. The method, then: as §1, §2
Assay [7] concerns staphylococci. The assay can be described thus: Lytic activity of chimera lysates against staphylococci. Type of assay: cell-based. Particulars: qualitative.
Assay [8] concerns S. aureus strain 8325-4. The assay can be described thus: ClyS activity as a function of pH and salt concentration. Particulars: 50 U, 15 minutes. It is filed as cell-based, Staphylococcus aureus. The method, then: The effect of pH on ClyS activity was determined as previously described using the universal buffer system pH 4-10 (Yoong et al). Briefly, log phase 8325-4 cells were resuspended in the universal buffer system and incubated with 50 U of ClyS for 15 minutes. The final pH of each reaction was checked by pH paper. The samples were serially diluted and plated. In controls, PB replaced ClyS.
Similarly the effect of salt concentration on the lytic activity of ClyS was determined by incubating 50 U of ClyS with log phase 8325-4 cells in PB containing NaCl at a final concentration of 25-500 mM for 15 minutes. The samples were serially diluted and plated to determine the viability counts.

For assay [9], the system named is S. aureus strain 8325-4. The assay can be described thus: Viability assay (colony-forming units). Type of assay: cell-based, Staphylococcus aureus. Particulars: 50 U of ClyS, in 30 min. As for the experimental part: The unit activity of ClyS was defined by measuring the spectrophotometric loss of turbidity, indicative of cell lysis, of S. aureus 8325-4 cells upon adding serial dilutions of ClyS. In our assays, 5 micrograms of ClyS corresponded to 1 U of lytic activity. When 50 U of ClyS was added to exponentially growing 8325-4 cells the OD600 dropped to baseline within 5 min (FIG. 7). To confirm that the observed cell lysis corresponds to cell death, staphylococcal viability was determined by enumerating aliquots from the lytic reaction at various time points.
as §2

In assay [10] the test system is group A, B, C and E streptococci, S. gordonli, S. salivarius, S. uberis, Bacillus cereus, Pseudomonas aeruginosa and E. coli. Kind of assay: Muralytic activity on bacterial strains, Set III. Type of assay: cell-based, mix of Gram-positive and Gram-negative bacteria. As to conditions: 50 U of ClyS, 15 minutes. The method, then:
as §1
as §2, with “The samples were serially diluted and plated. Control experiments with the addition of phosphate buffer (pH 7.0) were performed under the same conditions.” left out

B1: ClyS: chimeric lysin: Twort lysin endopeptidase domain attached to the phiNM3 CWT domain, 280 amino acid residues (protein)
chain: METLKQAESYIKSKVNTGTDFDGLYGYQCMDLAVDYIYHVTDGKIRMWGNAKDAINNSFGGTATVYKNYPAFRPKYGDVVVWTTGNFATYGHIAIVTNPDPYGDLQYVTVLEQNWNGNGIYKTELATIRTHDYTGITHFIRPNFATESSVKKKDTKKKPKPSNRDGLNKDKIVYDRTNINYNMVLQGKSASKITVGSKAPYNLKWSKGAYFNAKIDGLGATSATRYGDNRTNYRFDVGQAVYAPGTLIYVFEIIDGWCRIYWNNHNEWIWHERLIVKEVF
modifications: Chimeric of Staphylococcus aureus bacteriophage Twort domain and Staphylococcus aureus phage phiNM3 CWT domain
notes: chimeric lysin: Twort lysin endopeptidase domain attached to the phiNM3 CWT domain, 280 amino acid residues
For B1, the activity entry in assay [1] (AD 127 from the pAD138 construct) is “very high”. Also, the “lytic/killing activity against S. aureus” value in assay [1] (listed as AD 127) is listed as “very high activity”. For the same molecule, the “lytic/killing activity against S. aureus” value in assay [1] (listed as AD127) is given as “little or no killing activity”. The molecule further yielded a survival in [2] (130 μg/mouse of ClyS IP alone, 10 days) of 30%. Besides, the “mice died at forty-eight hours” value in [2] (1 mg of ClyS IP three hours post-infection) is 2/16. The “survival over the course of the experiments” value in assay [2] (1 mg of ClyS IP three hours post-infection, ten days) amounted to 88%. The ED30 dose in assay [2] (IP, preliminary experiments) is listed as 130 μg/mouse. Also, the “lytic effect seen by transmission electron microscopy” value in assay [3] was “localized degradation of the cell wall”. In assay [4], the “muralytic activity against S. sciuri” value is “active”. Besides, in assay [5], the “muralytic activity against S. epidermidis” value is “active”. Further, in assay [6], the “muralytic activity against S. simulans” value was “active”. The “lytic activity against staphylococci” value in [7] is given as “active”. Moreover, in [8], the “activity at physiological pH” value is on record as “partial yet significant activity” and the “activity at physiological salt concentrations” value is “functioned well”. Moreover, the “NaCl concentration above which activity deteriorated” value in assay [8] (25-500 mM NaCl in PB) is given as “above 400 mM”. In assay [9], the decrease in viability entry is listed as “approximately 3 logs”. In assay [10], the “muralytic activity against Set III organisms” value was “no activity”.
